Positions count from the first letter of the chain named. Names may count otherwise.
T1: human CXCR2 (human, UniProt P25025 1-360)
T1 construct: also called CXC chemokine receptor 2; hCXCR2
T1 sequence: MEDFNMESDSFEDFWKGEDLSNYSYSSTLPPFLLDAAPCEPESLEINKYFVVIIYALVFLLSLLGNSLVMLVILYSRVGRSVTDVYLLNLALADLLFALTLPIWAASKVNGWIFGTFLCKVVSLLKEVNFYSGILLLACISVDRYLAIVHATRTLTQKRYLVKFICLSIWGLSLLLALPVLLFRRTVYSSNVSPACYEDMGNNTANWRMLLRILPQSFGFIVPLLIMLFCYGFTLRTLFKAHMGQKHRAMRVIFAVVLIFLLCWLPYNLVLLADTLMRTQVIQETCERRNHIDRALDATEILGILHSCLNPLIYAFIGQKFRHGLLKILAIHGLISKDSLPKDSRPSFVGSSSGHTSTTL

B1: BKO-4A8 combinatorial variant 1b (antibody, human IgG4 S228P, lambda, V domains shown)
VH: EVQLLESGGGLVQPGGSLRLSCAASGFTFSSSTQSWVRQAPGKGLEWVSAISGRGRSTYYADSVKGRFTISRDNSRNTLYLQMNSLRAEDTAVYYCAIQMGYWGQGILVTVSS
VL: QSALTQPPSASGSPGQSVTISCIGTSSDVGGYNYVSWYQQHPDKAPKLMIYEVSKRPSGVPDRFSGSKSGNTASLTVSGLQAEDEADYYCSSYAGSNNFGVFGGGTKLTVLG
notes: IgG4 S228P, lambda
B2: BKO-4A8 combinatorial variant 3b (antibody, human IgG4 S228P, lambda, V domains shown)
VH: B1 VH with A40P, R76K
VL: B1 VL
notes: IgG4 S228P, lambda
B3: BKO-4A8 combinatorial variant 2c (antibody, human IgG4 S228P, lambda, V domains shown)
VH: B1 VH with A40P
VL: B1 VL with D43G
notes: IgG4 S228P, lambda
B4: BKO-4A8 combinatorial variant 1c (antibody, human IgG4 S228P, lambda, V domains shown)
VH: B1 VH
VL: B1 VL with D43G
notes: IgG4 S228P, lambda
B5: BKO-4A8 combinatorial variant 2b (antibody, human IgG4 S228P, lambda, V domains shown)
VH: B1 VH with A40P
VL: B1 VL
notes: IgG4 S228P, lambda
B6: BKO-4A8 variant VH R53Q (antibody, human IgG4 S228P, lambda, V domains shown)
VH: B1 VH with Q34M, R54Q, S57N
VL: B1 VL with S54N, S96N
notes: IgG4 S228P, lambda; parental light chain; also called 4A8 VH R53Q
B7: BKO-4A8 variant VL K53D (antibody, human IgG4 S228P, lambda, V domains shown)
VH: B1 VH with Q34M, S57N
VL: B1 VL with S54N, K55D, S96N
notes: IgG4 S228P, lambda; parental heavy chain; also called 4A8 VL K53D
B8: BKO-4A8 variant VL R54Q (antibody, human IgG4 S228P, lambda, V domains shown)
VH: B1 VH with Q34M, S57N
VL: B1 VL with S54N, R56Q, S96N
notes: IgG4 S228P, lambda; parental heavy chain; also called 4A8 VL R54Q
B9: BKO-4A8 variant VH S32W (antibody, human IgG4 S228P, lambda, V domains shown)
VH: B1 VH with S32W, Q34M, S57N
VL: B1 VL with S54N, S96N
notes: IgG4 S228P, lambda; parental light chain; also called 4A8 VH S32W
B10: BKO-4A8 variant VH S32L (antibody, human IgG4 S228P, lambda, V domains shown)
VH: B1 VH with S32L, Q34M, S57N
VL: B1 VL with S54N, S96N
notes: IgG4 S228P, lambda; parental light chain; also called 4A8 VH S32L
B11: BKO-4A8 variant VL N52D (antibody, human IgG4 S228P, lambda, V domains shown)
VH: B1 VH with Q34M, S57N
VL: B1 VL with S54D, S96N
notes: IgG4 S228P, lambda; parental heavy chain; also called 4A8 VL N52D
B12: BKO-4A8 variant VH S32H (antibody, human IgG4 S228P, lambda, V domains shown)
VH: B1 VH with S32H, Q34M, S57N
VL: B1 VL with S54N, S96N
notes: IgG4 S228P, lambda; parental light chain; also called 4A8 VH S32H
B13: BKO-4A8 variant VH T33A (antibody, human IgG4 S228P, lambda, V domains shown)
VH: B1 VH with T33A, Q34M, S57N
VL: B1 VL with S54N, S96N
notes: IgG4 S228P, lambda; parental light chain; also called 4A8 VH T33A
B14: BKO-4A8 variant VH I51H (antibody, human IgG4 S228P, lambda, V domains shown)
VH: B1 VH with Q34M, I51H, S57N
VL: B1 VL with S54N, S96N
notes: IgG4 S228P, lambda; parental light chain; also called 4A8 VH I51H
B15: BKO-4A8 variant VL E50D (antibody, human IgG4 S228P, lambda, V domains shown)
VH: B1 VH with Q34M, S57N
VL: B1 VL with E52D, S54N, S96N
notes: IgG4 S228P, lambda; parental heavy chain; also called 4A8 VL E50D
B16: BKO-4A8 variant VH Y102K (antibody, human IgG4 S228P, lambda, V domains shown)
VH: B1 VH with Q34M, S57N, Y102K
VL: B1 VL with S54N, S96N
notes: IgG4 S228P, lambda; parental light chain; also called 4A8 VH Y102K
B17: BKO-4A8 variant VL N95aD (antibody, human IgG4 S228P, lambda, V domains shown)
VH: B1 VH with Q34M, S57N
VL: B1 VL with S54N, S96N, N98D
notes: IgG4 S228P, lambda; parental heavy chain; also called 4A8 VL N95aD
B18: BKO-4A8 variant VH S32Y (antibody, human IgG4 S228P, lambda, V domains shown)
VH: B1 VH with S32Y, Q34M, S57N
VL: B1 VL with S54N, S96N
notes: IgG4 S228P, lambda; parental light chain; also called 4A8 VH S32Y
B19: BKO-4A8 variant VH G101D (antibody, human IgG4 S228P, lambda, V domains shown)
VH: B1 VH with Q34M, S57N, G101D
VL: B1 VL with S54N, S96N
notes: IgG4 S228P, lambda; parental light chain; also called 4A8 VH G101D
B20: BKO-4A8 variant VL K53A (antibody, human IgG4 S228P, lambda, V domains shown)
VH: B1 VH with Q34M, S57N
VL: B1 VL with S54N, K55A, S96N
notes: IgG4 S228P, lambda; parental heavy chain; also called 4A8 VL K53A
B21: BKO-4A8 variant VL N95aK (antibody, human IgG4 S228P, lambda, V domains shown)
VH: B1 VH with Q34M, S57N
VL: B1 VL with S54N, S96N, N98K
notes: IgG4 S228P, lambda; parental heavy chain; also called 4A8 VL N95aK
B22: BKO-4A8 variant VL V97A (antibody, human IgG4 S228P, lambda, V domains shown)
VH: B1 VH with Q34M, S57N
VL: B1 VL with S54N, S96N, V101A
notes: IgG4 S228P, lambda; parental heavy chain; also called 4A8 VL V97A
B23: BKO-4A8 variant VH M34W (antibody, human IgG4 S228P, lambda, V domains shown)
VH: B1 VH with Q34W, S57N
VL: B1 VL with S54N, S96N
notes: IgG4 S228P, lambda; parental light chain; also called 4A8 VH M34W
B24: BKO-4A8 variant VH R53S (antibody, human IgG4 S228P, lambda, V domains shown)
VH: B1 VH with Q34M, R54S, S57N
VL: B1 VL with S54N, S96N
notes: IgG4 S228P, lambda; parental light chain; also called 4A8 VH R53S
B25: BKO-4A8 variant VL N95aH (antibody, human IgG4 S228P, lambda, V domains shown)
VH: B1 VH with Q34M, S57N
VL: B1 VL with S54N, S96N, N98H
notes: IgG4 S228P, lambda; parental heavy chain; also called 4A8 VL N95aH
B26: BKO-4A8 variant VH G52aD (antibody, human IgG4 S228P, lambda, V domains shown)
VH: B1 VH with Q34M, G53D, S57N
VL: B1 VL with S54N, S96N
notes: IgG4 S228P, lambda; parental light chain; also called 4A8 VH G52aD
B27: BKO-4A8 variant VL N94A (antibody, human IgG4 S228P, lambda, V domains shown)
VH: B1 VH with Q34M, S57N
VL: B1 VL with S54N, S96A
notes: IgG4 S228P, lambda; parental heavy chain; also called 4A8 VL N94A
B28: BKO-4A8 variant VH Y102S (antibody, human IgG4 S228P, lambda, V domains shown)
VH: B1 VH with Q34M, S57N, Y102S
VL: B1 VL with S54N, S96N
notes: IgG4 S228P, lambda; parental light chain; also called 4A8 VH Y102S
B29: BKO-4A8 variant VH S32Q (antibody, human IgG4 S228P, lambda, V domains shown)
VH: B1 VH with S32Q, Q34M, S57N
VL: B1 VL with S54N, S96N
notes: IgG4 S228P, lambda; parental light chain; also called 4A8 VH S32Q
B30: BKO-4A8 variant VL N95aL (antibody, human IgG4 S228P, lambda, V domains shown)
VH: B1 VH with Q34M, S57N
VL: B1 VL with S54N, S96N, N98L
notes: IgG4 S228P, lambda; parental heavy chain; also called 4A8 VL N95aL
B31: BKO-4A8 variant VL K53H (antibody, human IgG4 S228P, lambda, V domains shown)
VH: B1 VH with Q34M, S57N
VL: B1 VL with S54N, K55H, S96N
notes: IgG4 S228P, lambda; parental heavy chain; also called 4A8 VL K53H
B32: BKO-4A8 variant VH M34D (antibody, human IgG4 S228P, lambda, V domains shown)
VH: B1 VH with Q34D, S57N
VL: B1 VL with S54N, S96N
notes: IgG4 S228P, lambda; parental light chain; also called 4A8 VH M34D
B33: BKO-4A8 variant VL V97K (antibody, human IgG4 S228P, lambda, V domains shown)
VH: B1 VH with Q34M, S57N
VL: B1 VL with S54N, S96N, V101K
notes: IgG4 S228P, lambda; parental heavy chain; also called 4A8 VL V97K
B34: BKO-4A8 variant VL N94L (antibody, human IgG4 S228P, lambda, V domains shown)
VH: B1 VH with Q34M, S57N
VL: B1 VL with S54N, S96L
notes: IgG4 S228P, lambda; parental heavy chain; also called 4A8 VL N94L
B35: BKO-4A8 variant VL Y91A (antibody, human IgG4 S228P, lambda, V domains shown)
VH: B1 VH with Q34M, S57N
VL: B1 VL with S54N, Y93A, S96N
notes: IgG4 S228P, lambda; parental heavy chain; also called 4A8 VL Y91A
B36: BKO-4A8 variant VL N94W (antibody, human IgG4 S228P, lambda, V domains shown)
VH: B1 VH with Q34M, S57N
VL: B1 VL with S54N, S96W
notes: IgG4 S228P, lambda; parental heavy chain; also called 4A8 VL N94W
B37: BKO-4A8 variant VH G54D (antibody, human IgG4 S228P, lambda, V domains shown)
VH: B1 VH with Q34M, G55D, S57N
VL: B1 VL with S54N, S96N
notes: IgG4 S228P, lambda; parental light chain; also called 4A8 VH G54D
B38: BKO-4A8 variant VL N95aY (antibody, human IgG4 S228P, lambda, V domains shown)
VH: B1 VH with Q34M, S57N
VL: B1 VL with S54N, S96N, N98Y
notes: IgG4 S228P, lambda; parental heavy chain; also called 4A8 VL N95aY

Target: T1, human CXCR2
Assay: flow cytometry, CXCR2-transfected Expi293F cells
Protocol: (§1) Harvested cells were resuspended in FACS buffer (1×PBS+0.5% (w/v) bovine serum albumin (BSA)+2 mM EDTA pH 7.2). Approximately 2×10⁵ cells were added per well in a 96-well round-bottomed plate. Cells were pelleted by centrifugation at 400 g for 5 mins at 4° C. and supernatants discarded. 25 μL of each test antibody or control antibody was added to the cells and incubated for 30 minutes at 4° C. Cells were washed twice in 100 μL FACS buffer followed by centrifugation at 400 g for 5 mins at 4° C.
(§2) For detection, 50 μL of secondary antibody (Table 2) was added to relevant samples. Commercially available antibodies that bound to transfected CXCR family members were used as positive controls to ensure that the cells were expressing the receptors. Cells were washed twice in 200 μL of FACS buffer followed by centrifugation at 400 g for 5 mins at 4° C. Before sample acquisition, cells were resuspended in 100 μL of FACS buffer. Samples were acquired using the high throughput sampler on a FACSCanto™ II cytometer (Beckton-Dickinson).
Each heavy chain was co-expressed with each light chain to produce a sequence optimized antibody variant. Antibodies were purified and tested for CXCR2 binding activity as described in General Methods.

Row | EC50 | Fold Improvement over 4A8 WT | Binder
1 | 0.3 nM | 1.33 fold | B1
2 | 0.1 nM | 4 fold | B2
3 | 0.3 nM | 1.67 fold | B3
4 | 0.3 nM | 1.33 fold | B4
5 | 0.4 nM | 1.25 fold | B5

Target: T1, human CXCR2
Assay: flow cytometry, CXCR2-transfected Expi293F cells
Remark: another data set of the same source
Protocol: as §1, §2
Each variant heavy chain was co-expressed with the parental light chain and vice versa.

Row | Fold change in binding relative to BKO-4A8 | Binder
6 | 0.64 fold | B6
7 | 1.4 fold | B7
8 | 1.6 fold | B8
9 | 0.83 fold | B9
10 | 1.33 fold | B10
11 | 1.7 fold | B11
12 | 0.86 fold | B12
13 | 1.3 fold | B13
14 | 1.8 fold | B14
15 | 2 fold | B15
16 | 1.3 fold | B16
17 | 2.3 fold | B17
18 | 1.33 fold | B18
19 | 1 fold | B19
20 | 1.4 fold | B20
21 | 1 fold | B21
22 | 1.7 fold | B22

Row | Fold change in binding relative to BKO-4A8 | Binder
23 | 1.17 fold | B23
24 | 1 fold | B24
25 | 1.3 fold | B25
26 | 1.18 fold | B26
27 | 1 fold | B27
28 | 1.5 fold | B28
29 | 1.71 fold | B29
30 | 1.7 fold | B30
31 | 1.4 fold | B31
32 | 1.6 fold | B32
33 | 1 fold | B33
34 | 0.88 fold | B34
35 | 1.7 fold | B35
36 | 0.63 fold | B36
37 | 1 fold | B37
38 | 1.7 fold | B38

Reference: patent publication US20240301076A1 (CEPHALON, published 2024)
